Experimental data published in patent publication US20210139548A1 (published 2021).
*1 amine or outer side, *2 acyl side, *3 side chain or, on linkers, in order; H or OH if unused. Side-chain parts run from the residue outwards. The star is where a group is joined. C18 diacid = O=C(O)CCCCCCCCCCCCCCCCC(=O)*; γGlu = O=C(O)[C@H](CCC(=O)[*:2])N[*:1]; Isovaleryl = CC(C)CC(=O)*; AEEA = NCCOCCOCC(=O)O

Target: T1, human neuropeptide Y2 receptor (human, UniProt P49146 1-381)
T1 construct: whole, on cells; also called hNPY2 receptor; hNPY2-R
T1 sequence (looked up): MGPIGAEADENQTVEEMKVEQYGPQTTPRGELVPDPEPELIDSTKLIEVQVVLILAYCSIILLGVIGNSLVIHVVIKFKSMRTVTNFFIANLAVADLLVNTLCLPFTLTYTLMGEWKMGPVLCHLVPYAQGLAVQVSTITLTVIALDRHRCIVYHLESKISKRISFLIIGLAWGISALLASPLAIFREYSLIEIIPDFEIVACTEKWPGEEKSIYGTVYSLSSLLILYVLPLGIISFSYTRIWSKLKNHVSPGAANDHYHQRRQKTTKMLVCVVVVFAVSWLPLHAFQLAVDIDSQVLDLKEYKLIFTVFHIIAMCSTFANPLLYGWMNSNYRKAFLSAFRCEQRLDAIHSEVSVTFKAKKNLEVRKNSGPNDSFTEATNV
Experiment: radioligand competition (125I-PYY(1-36)), hNPY2R membranes
In short: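 Commercial human Y2 receptor membranes (0.5 μg protein/well) were incubated with peptide for 2 h at room temperature in 50 mM HEPES, 5 mM MgCl₂, 1 mM CaCl₂, pH 7.4, with 0.2% ovalbumin. Bound radioligand was separated on PEI-soaked GF/C filters and counted by scintillation, and IC₅₀ came from nonlinear sigmoidal regression.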

| Binder | Ki [nM] |
| --- | --- |
| Isovaleryl-APEK([AEEA-AEEA-γGlu-C18 diacid])PEEAAEPEELQRYYVSLRHYYNWLTRQRY-NH2 (SMILES CC(C)CC(=O)N[C@@H](C)C(=O)N1CCC[C@H]1C(=O)N[C@@H](CCC(=O)O)C(=O)N[C@@H](CCCCNC(=O)COCCOCCNC(=O)COCCOCCNC(=O)CC[C@H](NC(=O)CCCCCCCCCCCCCCCCC(=O)O)C(=O)O)C(=O)N1CCC[C@H]1C(=O)N[C@@H](CCC(=O)O)C(=O)N[C@@H](CCC(=O)O)C(=O)N[C@@H](C)C(=O)N[C@@H](C)C(=O)N[C@@H](CCC(=O)O)C(=O)N1CCC[C@H]1C(=O)N[C@@H](CCC(=O)O)C(=O)N[C@@H](CCC(=O)O)C(=O)N[C@@H](CC(C)C)C(=O)N[C@@H](CCC(N)=O)C(=O)N[C@@H](CCCNC(=N)N)C(=O)N[C@@H](Cc1ccc(O)cc1)C(=O)N[C@@H](Cc1ccc(O)cc1)C(=O)N[C@H](C(=O)N[C@@H](CO)C(=O)N[C@@H](CC(C)C)C(=O)N[C@@H](CCCNC(=N)N)C(=O)N[C@@H](Cc1c[nH]cn1)C(=O)N[C@@H](Cc1ccc(O)cc1)C(=O)N[C@@H](Cc1ccc(O)cc1)C(=O)N[C@@H](CC(N)=O)C(=O)N[C@@H](Cc1c[nH]c2ccccc12)C(=O)N[C@@H](CC(C)C)C(=O)N[C@H](C(=O)N[C@@H](CCCNC(=N)N)C(=O)N[C@@H](CCC(N)=O)C(=O)N[C@@H](CCCNC(=N)N)C(=O)N[C@@H](Cc1ccc(O)cc1)C(N)=O)[C@@H](C)O)C(C)C) [Compound 223] | 4.77 |
| Isovaleryl-APEK([AEEA-AEEA-γGlu-C18 diacid])PGEEASPEELEQYYVSLRHYYNWLTRQRY-NH2 (SMILES CC(C)CC(=O)N[C@@H](C)C(=O)N1CCC[C@H]1C(=O)N[C@@H](CCC(=O)O)C(=O)N[C@@H](CCCCNC(=O)COCCOCCNC(=O)COCCOCCNC(=O)CC[C@H](NC(=O)CCCCCCCCCCCCCCCCC(=O)O)C(=O)O)C(=O)N1CCC[C@H]1C(=O)NCC(=O)N[C@@H](CCC(=O)O)C(=O)N[C@@H](CCC(=O)O)C(=O)N[C@@H](C)C(=O)N[C@@H](CO)C(=O)N1CCC[C@H]1C(=O)N[C@@H](CCC(=O)O)C(=O)N[C@@H](CCC(=O)O)C(=O)N[C@@H](CC(C)C)C(=O)N[C@@H](CCC(=O)O)C(=O)N[C@@H](CCC(N)=O)C(=O)N[C@@H](Cc1ccc(O)cc1)C(=O)N[C@@H](Cc1ccc(O)cc1)C(=O)N[C@H](C(=O)N[C@@H](CO)C(=O)N[C@@H](CC(C)C)C(=O)N[C@@H](CCCNC(=N)N)C(=O)N[C@@H](Cc1c[nH]cn1)C(=O)N[C@@H](Cc1ccc(O)cc1)C(=O)N[C@@H](Cc1ccc(O)cc1)C(=O)N[C@@H](CC(N)=O)C(=O)N[C@@H](Cc1c[nH]c2ccccc12)C(=O)N[C@@H](CC(C)C)C(=O)N[C@H](C(=O)N[C@@H](CCCNC(=N)N)C(=O)N[C@@H](CCC(N)=O)C(=O)N[C@@H](CCCNC(=N)N)C(=O)N[C@@H](Cc1ccc(O)cc1)C(N)=O)[C@@H](C)O)C(C)C) [Compound 224] | 4.64 |
| Isovaleryl-APEK([AEEA-AEEA-γGlu-C18 diacid])PEEAASPEETQRYYVSLRHYYNWLTRQRY-NH2 (SMILES CC(C)CC(=O)N[C@@H](C)C(=O)N1CCC[C@H]1C(=O)N[C@@H](CCC(=O)O)C(=O)N[C@@H](CCCCNC(=O)COCCOCCNC(=O)COCCOCCNC(=O)CC[C@H](NC(=O)CCCCCCCCCCCCCCCCC(=O)O)C(=O)O)C(=O)N1CCC[C@H]1C(=O)N[C@@H](CCC(=O)O)C(=O)N[C@@H](CCC(=O)O)C(=O)N[C@@H](C)C(=O)N[C@@H](C)C(=O)N[C@@H](CO)C(=O)N1CCC[C@H]1C(=O)N[C@@H](CCC(=O)O)C(=O)N[C@@H](CCC(=O)O)C(=O)N[C@H](C(=O)N[C@@H](CCC(N)=O)C(=O)N[C@@H](CCCNC(=N)N)C(=O)N[C@@H](Cc1ccc(O)cc1)C(=O)N[C@@H](Cc1ccc(O)cc1)C(=O)N[C@H](C(=O)N[C@@H](CO)C(=O)N[C@@H](CC(C)C)C(=O)N[C@@H](CCCNC(=N)N)C(=O)N[C@@H](Cc1c[nH]cn1)C(=O)N[C@@H](Cc1ccc(O)cc1)C(=O)N[C@@H](Cc1ccc(O)cc1)C(=O)N[C@@H](CC(N)=O)C(=O)N[C@@H](Cc1c[nH]c2ccccc12)C(=O)N[C@@H](CC(C)C)C(=O)N[C@H](C(=O)N[C@@H](CCCNC(=N)N)C(=O)N[C@@H](CCC(N)=O)C(=O)N[C@@H](CCCNC(=N)N)C(=O)N[C@@H](Cc1ccc(O)cc1)C(N)=O)[C@@H](C)O)C(C)C)[C@@H](C)O) [Compound 226] | 1.21 |

The remaining lines, values ahead:

| Ki [nM] | Binder |
| --- | --- |
| 2.84 | Isovaleryl-APEK([AEEA-AEEA-γGlu-C18 diacid])PEEDASPEELQRYYVSARHYYNWLTRQRY-NH2 (SMILES CC(C)CC(=O)N[C@@H](C)C(=O)N1CCC[C@H]1C(=O)N[C@@H](CCC(=O)O)C(=O)N[C@@H](CCCCNC(=O)COCCOCCNC(=O)COCCOCCNC(=O)CC[C@H](NC(=O)CCCCCCCCCCCCCCCCC(=O)O)C(=O)O)C(=O)N1CCC[C@H]1C(=O)N[C@@H](CCC(=O)O)C(=O)N[C@@H](CCC(=O)O)C(=O)N[C@@H](CC(=O)O)C(=O)N[C@@H](C)C(=O)N[C@@H](CO)C(=O)N1CCC[C@H]1C(=O)N[C@@H](CCC(=O)O)C(=O)N[C@@H](CCC(=O)O)C(=O)N[C@@H](CC(C)C)C(=O)N[C@@H](CCC(N)=O)C(=O)N[C@@H](CCCNC(=N)N)C(=O)N[C@@H](Cc1ccc(O)cc1)C(=O)N[C@@H](Cc1ccc(O)cc1)C(=O)N[C@H](C(=O)N[C@@H](CO)C(=O)N[C@@H](C)C(=O)N[C@@H](CCCNC(=N)N)C(=O)N[C@@H](Cc1c[nH]cn1)C(=O)N[C@@H](Cc1ccc(O)cc1)C(=O)N[C@@H](Cc1ccc(O)cc1)C(=O)N[C@@H](CC(N)=O)C(=O)N[C@@H](Cc1c[nH]c2ccccc12)C(=O)N[C@@H](CC(C)C)C(=O)N[C@H](C(=O)N[C@@H](CCCNC(=N)N)C(=O)N[C@@H](CCC(N)=O)C(=O)N[C@@H](CCCNC(=N)N)C(=O)N[C@@H](Cc1ccc(O)cc1)C(N)=O)[C@@H](C)O)C(C)C) [Compound 229] |
| 12.3 | Isovaleryl-APEK([AEEA-AEEA-γGlu-C18 diacid])AEEDASPEELEQYYVSLRHYYNWLTRQRY-NH2 (SMILES CC(C)CC(=O)N[C@@H](C)C(=O)N1CCC[C@H]1C(=O)N[C@@H](CCC(=O)O)C(=O)N[C@@H](CCCCNC(=O)COCCOCCNC(=O)COCCOCCNC(=O)CC[C@H](NC(=O)CCCCCCCCCCCCCCCCC(=O)O)C(=O)O)C(=O)N[C@@H](C)C(=O)N[C@@H](CCC(=O)O)C(=O)N[C@@H](CCC(=O)O)C(=O)N[C@@H](CC(=O)O)C(=O)N[C@@H](C)C(=O)N[C@@H](CO)C(=O)N1CCC[C@H]1C(=O)N[C@@H](CCC(=O)O)C(=O)N[C@@H](CCC(=O)O)C(=O)N[C@@H](CC(C)C)C(=O)N[C@@H](CCC(=O)O)C(=O)N[C@@H](CCC(N)=O)C(=O)N[C@@H](Cc1ccc(O)cc1)C(=O)N[C@@H](Cc1ccc(O)cc1)C(=O)N[C@H](C(=O)N[C@@H](CO)C(=O)N[C@@H](CC(C)C)C(=O)N[C@@H](CCCNC(=N)N)C(=O)N[C@@H](Cc1c[nH]cn1)C(=O)N[C@@H](Cc1ccc(O)cc1)C(=O)N[C@@H](Cc1ccc(O)cc1)C(=O)N[C@@H](CC(N)=O)C(=O)N[C@@H](Cc1c[nH]c2ccccc12)C(=O)N[C@@H](CC(C)C)C(=O)N[C@H](C(=O)N[C@@H](CCCNC(=N)N)C(=O)N[C@@H](CCC(N)=O)C(=O)N[C@@H](CCCNC(=N)N)C(=O)N[C@@H](Cc1ccc(O)cc1)C(N)=O)[C@@H](C)O)C(C)C) [Compound 227] |
